In article PMC9908020, “Structural basis of the transcription termination factor Rho engagement with transcribing RNA polymerase from Thermus thermophilus” (Science Advances, 2023):

B1: Thermus thermophilus transcription termination factor Rho (enzyme)
chain: MRRKETLQETPLTYQELASKILPELHLLAQEAGIEGYKRMKKDQLIMALLERQTQGEGLRLVKGYLEISQDGYGFLTENLHNLESRVAIVSAGLIKQYALRAGDYVVGQARPPRENERYATLLKVEAVNNLDPEAAKNRPRFDELTPQFPDRQIRLETTPDELSTRVIDLLAPIGRGQRGLIVAPPKAGKTTLLKKIANAVLKNEPDIKVIVLLIDERPEEVTDFRESVQGAEVIASTFDEPPQNHIRVAEFVHERAKRIVEEGGHVMILLDSITRLARANNLVTPPTGRTLSGGLDSAALYFPKRFLGAARNIRGGGSLTILATALVETGSRMDDVIFEEFKGTGNMELHLSRRLEERRIFPAIDILKSGTRREELLLGEEVTHKMWLLRKVLADMDPAEAMEMLLARLARTKNNKEFLASLAAR
notes: Transcription termination factor Rho, Thermus thermophilus; the C terminus is printed as Arg426; the model leaves out 59 residues at the N terminus; Closed-ring homo-hexamer with ADP·BeF3 at the protomer interfaces; RNA is threaded through the central channel in the RNAP complexes; also called wild-type Rho; Rho hexamer; not shown: His tag, N-terminal, cleaved
B2: Thermus thermophilus RNA polymerase ω subunit (natural protein)
chain: MAEPGIDKLFGMVDSKYRLTVVVAKRAQQLLRHGFKNTVLEPEERPKMQTLEGLFDDPNAVTWAMKELLTGRLVFGENLVPEDRLQKEMERLYPVEREE
notes: RNA polymerase ω subunit, Thermus thermophilus; It stood in the assay as a subunit of the RNAP complex m2; It was cloned in pET-47b, which may add a cleavable N-terminal His tag (surmise); source: E. coli Rosetta2 (DE3), coexpressed and purified as part of RNAP

Assays:
T. thermophilus Rho = target: T1, T. thermophilus Rho (Thermus thermophilus, UniProt Q5SJE9); test: Rho-dependent RNA release from immobilised RNAP elongation complex, urea-PAGE; assay type: biochemical; details: 1 mM ATP, 200 nM Rho, 10 mM MgCl2, pH 7.5, 65 °C; with T. thermophilus RNAP elongation complex
T1 construct: full-length (C terminus Arg426), N-terminal His-tag cleaved by HRV 3C; pET-47b in E. coli Rosetta2 (DE3); closed-ring homohexamer; model lacks 59 N-terminal residues

[1] = target: T2, Thermus thermophilus RNA polymerase β subunit (Thermus thermophilus, UniProt Q8RQE9 1-1119); test: cryo-EM structure; type 1 class: EC (RNAP with template DNA and 125-nt nascent RNA, gel filtered) mixed with Rho and 0.5 mM ADP·BeF3 in buffer C (20 mM Hepes-NaOH pH 7.5, 250 mM KCl, 5 mM MgCl2, 1% glycerol), cross-linked with 3 mM BS3; nascent RNA threaded into the Rho ring; details: both partners purified
T2 construct: RNA polymerase β subunit, Thermus thermophilus; It stood in the assay as a subunit of the RNAP complex m2; source: E. coli Rosetta2 (DE3), coexpressed and purified as part of RNAP

[2] = target: T3, Thermus thermophilus RNA polymerase β′ subunit (Thermus thermophilus, UniProt Q8RQE8 1-1524); test: as above; details: both partners purified
T3 construct: RNA polymerase β′ subunit, Thermus thermophilus; It stood in the assay as a subunit of the RNAP complex m2; source: E. coli Rosetta2 (DE3), coexpressed and purified as part of RNAP

[3] = target: the molecule itself; test: cryo-EM structure; Rho-only class of the same sample: closed-ring hexamer with ADP·BeF3 between the protomers; C6 symmetry
[4] = target: T4, Thermus thermophilus RNA polymerase lacking the β-flap tip helix (Thermus thermophilus, UniProt Q5SHR6 1-315; Q8RQE9 1-761; Q8RQE9 783-1119; Q8RQE8 1-1524; Q8RQE7 1-99); test: cryo-EM structure; EC-Rho complex prepared with the β-flap tip-deleted RNAP; 2D class averages of ~3000 particles of the RNAP-Rho complex; details: both partners purified
T4 construct: RNA polymerase α subunit, Thermus thermophilus; RNA polymerase β subunit, Thermus thermophilus, up to the residue before the deleted β-flap tip helix (β762 to β782 removed); three alanine residues that fill the gap; RNA polymerase β subunit, Thermus thermophilus, from the residue after the deleted β-flap tip helix; RNA polymerase β′ subunit, Thermus thermophilus; RNA polymerase ω subunit, Thermus …

[5] = target: B1; test: cryo-EM structure; type 1 class: EC (RNAP with template DNA and 125-nt nascent RNA, gel filtered) mixed with Rho and 0.5 mM ADP·BeF3 in buffer C (20 mM Hepes-NaOH pH 7.5, 250 mM KCl, 5 mM MgCl2, 1% glycerol), cross-linked with 3 mM BS3; nascent RNA threaded into the Rho ring; details: both partners purified

Molecule: Nc1ncnc2c1ncn2[C@@H]1O[C@H](COP(=O)(O)OP(=O)(O)OP(=O)(O)O)[C@@H](O)[C@H]1O [ATP]
- Rho-dependent RNA release from immobilised RNAP elongation complex, urea-PAGE (T. thermophilus Rho): The RNA release is ATP dependent, as it did not occur in either the absence

Molecule: B1
- binding result [1]: binds
- binding result [2]: binds
- stoichiometry N [3]: 6
- binding result [4]: binds

Molecule: B2
- binding result [5]: binds
